The values that follow come from patent publication US20230340058A1.

B1: SEQ ID NO: 204 (Fc fusion)
chain: DKTHTCPPCPAPEAAGGPSVFLFPPKPKDTLMISRTPEVTCVVVDVSHEDPEVKFNWYVDGVEVHNAKTKPREEQYNSTYRVVSVLTVLHQDWLNGKEYKCKVSNKALAAPIEKTISKAKGQPREPQVYTLPPSRDELTKNQVSLTCLVKGFYPSDIAVEWESNGQPENNYKTTPPVLDSDGSFFLYSKLTVDKSRWQQGNVFSCSVLHEALHSHYTQKSLSLSPGKGGSDSWKEEVIKLCGRELVRAQIAICGKSTGGGEGGGEGGGEGRQLYSALANKCCHVGCTKRSLARFC
B2: SEQ ID NO: 57 (Fc fusion)
chain: DKTHTCPPCPAPEAAGGPSVFLFPPKPKDTLMISRTPEVTCVVVDVSHEDPEVKFNWYVDGVEVHNAKTKPREEQYNSTYRVVSVLTVLHQDWLNGKEYKCKVSNKALAAPIEKTISKAKGQPREPQVYTLPPSRDELTKNQVSLTCLVKGFYPSDIAVEWESNGQPENNYKTTPPVLDSDGSFFLYSKLTVDKSRWQQGNVFSCSVLHEALHSHYTQKSLSLSPGKGGSDSWQEEVIKLCGRELVRAQIAICGKSTGGGEGGGEGGGEGRQLYSALANKCCHVGCTKRSLARFC
B3: SEQ ID NO: 206 (Fc fusion)
chain: DKTHTCPPCPAPEAAGGPSVFLFPPKPKDTLMISRTPEVTCVVVDVSHEDPEVKFNWYVDGVEVHNAKTKPREEQYNSTYRVVSVLTVLHQDWLNGKEYKCKVSNKALAAPIEKTISKAKGQPREPQVYTLPPSRDELTKNQVSLTCLVKGFYPSDIAVEWESNGQPENNYKTTPPVLDSDGSFFLYSKLTVDKSRWQQGNVFSCSVLHEALHSHYTQKSLSLSPGKGGSDSWMEEVIKLCGRELVRAQIAICGKSTGGGEGGGEGGGEGRQLYSALANKCCHVGCTKRSLARFC
B4: Relaxin-2 (R&D Biosystems 6586-RN-025) (ligand)
chain 1: DSWMEEVIKLCGRELVRAQIAICGMSTWS
chain 2: QLYSALANKCCHVGCTKRSLARFC
B5: SEQ ID NO: 205 (Fc fusion)
chain: DKTHTCPPCPAPEAAGGPSVFLFPPKPKDTLMISRTPEVTCVVVDVSHEDPEVKFNWYVDGVEVHNAKTKPREEQYNSTYRVVSVLTVLHQDWLNGKEYKCKVSNKALAAPIEKTISKAKGQPREPQVYTLPPSRDELTKNQVSLTCLVKGFYPSDIAVEWESNGQPENNYKTTPPVLDSDGSFFLYSKLTVDKSRWQQGNVFSCSVLHEALHSHYTQKSLSLSPGKGGSDSWKEEVIKLCGRELVRAQIAICGKSTGGGEGGGEGGGEGGGQLYSALANKCCHVGCTKRSLARFC
B6: SEQ ID NO: 207 (Fc fusion)
chain: DKTHTCPPCPAPEAAGGPSVFLFPPKPKDTLMISRTPEVTCVVVDVSHEDPEVKFNWYVDGVEVHNAKTKPREEQYNSTYRVVSVLTVLHQDWLNGKEYKCKVSNKALAAPIEKTISKAKGQPREPQVYTLPPSRDELTKNQVSLTCLVKGFYPSDIAVEWESNGQPENNYKTTPPVLDSDGSFFLYSKLTVDKSRWQQGNVFSCSVLHEALHSHYTQKSLSLSPGKGGSDSWMEEVIKLCGRELVRAQIAICGKSTGGGEGGGEGGGEGGGQLYSALANKCCHVGCTKRSLARFC
B7: SEQ ID NO: 60 (Fc fusion)
chain: DKTHTCPPCPAPEAAGGPSVFLFPPKPKDTLMISRTPEVTCVVVDVSHEDPEVKFNWYVDGVEVHNAKTKPREEQYNSTYRVVSVLTVLHQDWLNGKEYKCKVSNKALAAPIEKTISKAKGQPREPQVYTLPPSRDELTKNQVSLTCLVKGFYPSDIAVEWESNGQPENNYKTTPPVLDSDGSFFLYSKLTVDKSRWQQGNVFSCSVLHEALHSHYTQKSLSLSPGKGGSDSWQEEVIKLCGRELVRAQIAICGKSTGGGEGGGEGGGEGGGQLYSALANKCCHVGCTKRSLARFC

In this test the target is human RXFP1, full-length (human), Q9HBX9. In words: cell-based or functional assay.
Sequence of human RXFP1, full-length (human), Q9HBX9 (Q9HBX9 whole entry): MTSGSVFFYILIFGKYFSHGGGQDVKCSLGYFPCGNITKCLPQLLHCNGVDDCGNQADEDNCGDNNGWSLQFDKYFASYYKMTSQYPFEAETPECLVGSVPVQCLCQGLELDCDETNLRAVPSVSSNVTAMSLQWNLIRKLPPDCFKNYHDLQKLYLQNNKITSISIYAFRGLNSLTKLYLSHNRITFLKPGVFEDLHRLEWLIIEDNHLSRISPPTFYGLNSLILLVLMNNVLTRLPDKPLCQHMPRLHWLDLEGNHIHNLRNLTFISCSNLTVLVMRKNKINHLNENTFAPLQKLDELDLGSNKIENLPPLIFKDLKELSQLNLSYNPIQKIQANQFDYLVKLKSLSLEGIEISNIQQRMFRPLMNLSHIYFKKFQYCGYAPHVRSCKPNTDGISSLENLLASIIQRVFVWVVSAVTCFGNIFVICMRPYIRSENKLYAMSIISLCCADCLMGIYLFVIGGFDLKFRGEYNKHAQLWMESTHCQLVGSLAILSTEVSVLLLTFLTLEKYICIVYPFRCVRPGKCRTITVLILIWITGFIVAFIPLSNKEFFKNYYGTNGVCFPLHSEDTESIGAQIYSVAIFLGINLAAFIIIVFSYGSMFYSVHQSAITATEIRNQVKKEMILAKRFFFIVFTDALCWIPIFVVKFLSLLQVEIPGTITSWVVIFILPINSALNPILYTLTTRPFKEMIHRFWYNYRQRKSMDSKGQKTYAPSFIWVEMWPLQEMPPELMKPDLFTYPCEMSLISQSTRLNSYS
Take B1: the Potency Assay EC50 (nM), transient hRXFP1 cAMP assay is 2.5 nM.

On to B2, for which the Potency Assay EC50 (nM), transient hRXFP1 cAMP assay came to 2.5 nM. In turn, B3 registered a Potency Assay EC50 (nM), transient hRXFP1 cAMP assay of 2.9 nM. As for B4, the EC50 in nM (cAMP Response in RXFP1 Transfected HEK293 Cells) was 0.042 nM; the Potency Assay EC50 (nM), transient hRXFP1 cAMP assay stood at 0.1 nM; the pEC50 (cAMP Response in RXFP1 Transfected HEK293 Cells) came out at 10.4. As to B5, the Potency Assay EC50 (nM), transient hRXFP1 cAMP assay worked out at 12.3 nM. On the same count and under the same terms, the value for B6 was 16 nM; that for B7 was 15.8 nM.
